In the nanobody polyreactivity screen of Harvey et al. (2022):

Assay: yeast display, Sf9 membrane polyspecificity reagent, FACS + sequencing; frameworks hold sequencing errors
Procedure, shortened: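 Synthetic nanobody libraries on Saccharomyces cerevisiae BJ5465 were galactose-induced for 36–48 hours, stained 1 hour at 4 °C with 10% biotinylated, detergent-solubilized Sf9 membrane reagent and enriched on streptavidin microbeads. FACS then separated cells into low and high (top ~1%) gates by anti-HA (expression) and streptavidin (reagent binding) fluorescence. Genes were colony-PCR amplified, MiSeq 2 × 250 sequenced and CDR-length filtered. A clone's polyreactivity label is that of its gate of origin.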

Sequence	polyreactivity (PSR sort gate)
QVQLVESGGGLVQAGGSLRLSCAASGSIFPSNAMGWYRQAPGKERELVAAISWSGDITYYADSVKGRFTISRDNAKNTVYLQMNSLKPEDTAVYYCAADTPIAGYWYNYWGQGTQVTVSS	low polyreactivity
QVQLVESGGGLVQAGGSLRLSCAASGSIFPSYAMGWYRQAPGKERELVAAISSGGTTNYADSVKGRFTISLDNAKNTVYLQMNSLKPEDTAVYYCAAVRGDSEDRYDHWGQGTQVTVSS	high polyreactivity
QVQLVESGGGLVQAGGSLRLSCAASGSIFPSYAMGWYRQAPGKERELVAAISSRGGSTYYADSVKGRFTISRDNAKNTVYLQMNSLKPEDTAVYYCAADWSYYRRHFDYWGQGTQVTVSS	high polyreactivity
QVQLVESGGGLVQAGGSLRLSCAASGSIFPSYAMGWYRQAPGKERELVAAISTWNDGGTYYADSVKGRFTISRDNGKNTVYLQMNSLKPEDTAVYYCAADSPKYYYDYDYWGQGTQVTVSS	low polyreactivity
QVQLVESGGGLVQAGGSLRLSCAASGSIFPTNAMGWYRQAPGKERELVAAITSGGGTNYADSVMGRFTISRDNAKNTVYLQMNSLKTEDTAVYYCAADRYVEYGYWGQGTQVTVSS	low polyreactivity
QVQLVESGGGLVQAGGSLRLSCAASGSIFPVYAMGWYRQAPGKERELVAAINSSGGTTYYADSVKGRFSNSRDNAKNTVYLQMNSLKPEDTAVYYCAAEICTSSYLAKTYDYWGQGTQVTVSS	low polyreactivity
QVQLVESGGGLVQAGGSLRLSCAASGSIFPYNAMGWYRQAPGKEMELVATISSGGSTNYADSVKGRFTISRDNAKNTVYLQMNSLKPEDTAVYYCAADVIVFYYAPNYWGDIEYGYWGQGTQVTVSS	low polyreactivity
QVQLVESGGGLVQAGGSLRLSCAASGSIFPYNAMGWYRQAPGKERELVAAISKRGGSTYYADSVKGRFTISRDNAKNTVYFQMNSLKPEDTAVYYCAARYPPYRSWYSYDYWGQGTQVTVSS	low polyreactivity
QVQLVESGGGLVQAGGSLRLSCAASGSIFPYNAMGWYRQAPGKERELVATINSRGGRTYYADSVKGRFTISRDNAKNTVYLQMNSLKPEDTAVYYCARYYSSALRYGYWGQGTQVTVSS	low polyreactivity
QVQLVESGGGLVQAGGSLRLSCAASGSIFPYNAMGWYRQAPGKERELVATISSGGSTNYADSVKGRFTISRDNAKNTVYLQMNSLKPEDTAVYYCATDDFWNVKFYAYYPEFDYWGQGTQVTVSS	low polyreactivity
QVQLVESGGGLVQAGGSLRLSCAASGSIFPYVNAMGWYRQAPGKERELVASIPGGGGTKYADSVKGRFTISRDNAKNTVYLQMNSLKPEDTAVYYCNATSGNPASTAWMNYWGQGTQVTVSS	low polyreactivity
QVQLVESGGGLVQAGGSLRLSCAASGSIFPYYALGRYRQAPGKERELVADITSSGGSTYYADSVKGRFTISRDNAKNTVYLQMNSLKPEDTAVYYCAALYWFYVYPFTEYDYWGQGTQVTVSS	low polyreactivity
QVQLVESGGGLVQAGGSLRLSCAASGSIFPYYAMGWYIQAPGKERELVAVITTSGGRTYYADSVKGRFTISRDNAKNTVYLQMNSLKPEDTAVYYCATDVRQGSGWRYYYWGQGTQVTVSS	high polyreactivity
QVQLVESGGGLVQAGGSLRLSCAASGSIFPYYAMGWYRKAPGKERELVAAISSSGGSTTYADSVKGRFTISRDHAKNTVYLQMNSLKPEDTAVYYCAALTYRRSSGGFDYWGQGTQVTVSS	high polyreactivity
QVQLVESGGGLVQAGGSLRLSCAASGSIFPYYAMGWYRPAPGKERELVAVISRGGGRTYYADSVKGRFTISRDNAKITVYLQMNSLKPEDTAVYYCYAGYPYGGDYWGQGTQVTVSS	high polyreactivity
QVQLVESGGGLVQAGGSLRLSCAASGSIFPYYAMGWYRQAPGKERELVAAITGAGSTNYADSVKGRFTISRDNAKNTVYLQRNSLKPEDTAVYYCAADFGSPDKWRDWYDYWGQGTQVTVSS	low polyreactivity

Sequence	polyreactivity (PSR sort gate)
QVQLVESGGGLVQAGGSLRLSCAASGSIFPYYAMGWYRQAPGKERELVASISRSVGSTFYADSVKGRFTISRDNAKNTVYLQMNSLKPEDTAVYYCAVRYFAQFGDYDYWGQGTQVTVSS	high polyreactivity
QVQLVESGGGLVQAGGSLRLSCAASGSIFPYYAMGWYRQAPGKERELVATITYRGGSTNYADSVKGRFTISRDNAKNTVYLQMNSLNPEDTAVYYCAAYGYVLASPYPYSFVKLGYWGQGTQVTVSS	low polyreactivity
QVQLVESGGGLVQAGGSLRLSCAASGSIFPYYAMGWYRQATGKERELVATITSRGGSTYYADSVKGRFTISRDNAKNTVYLQMNSLIPEDTAVYNCAKEYRYYRRRYDYWGQGTQVTVSS	high polyreactivity
QVQLVESGGGLVQAGGSLRLSCAASGSIFPYYTMGWYRQAPGKERELVAAITTSDSSTYYADSVKGRFTISRDNAKNTVYLQMNSLKPEDTAVYYCAARYSLYPYYAYDDAYRLYRLRGRDYWGQGTQVTVSS	low polyreactivity
QVQLVESGGGLVQAGGSLRLSCAASGSIFQAYAMGWYRQAPGKERELVAAITASGTRTYYADSVKGRFTISRDNAQNTVYLQMNSLKPEDTAVYYCAAGTYRWGFGVRSAMDYWGQGTQVTVSS	high polyreactivity
QVQLVESGGGLVQAGGSLRLSCAASGSIFQAYAMGWYRQAPGKERELVASISQSGDSTYYADSVKGRFTISRDNAKNTVYLQMNSLKPEDTAVYYCAAVQYGHRRGRVSVRRRLDYWGQGTQVTVSS	low polyreactivity
QVQLVESGGGLVQAGGSLRLSCAASGSIFQENAMGWYRQAPGKERELVAAINTGSITSYADSVKGRFTISRDNAKNTVYLQMNSLKPEDTAVYYCAADSFSLYDSWGQGTQVTVSS	low polyreactivity
QVQLVESGGGLVQAGGSLRLSCAASGSIFQFYAMGWYRQAPGKERELVAVITTSGVSTYYADSVKGRFTISRDNAKNTVYLQMNSLKPEDTAVYYCAADDYYLAGDYWGQGTQVTVSS	low polyreactivity
QVQLVESGGGLVQAGGSLRLSCAASGSIFQFYAMGWYRQAPGKERELVAVITTSGVSTYYADSVKGRFTISRDNAMNTVYLQMNSLKPEDTAVYFCAADDYYLAGDYWGQGTQVTVSS	low polyreactivity
QVQLVESGGGLVQAGGSLRLSCAASGSIFQHNAMGWYRQAPGKERELVATISESGGSTYYADSVKGRFTISRDNAKNTVYLQMNSLKPEDTAVYYCNTDYDYGWWDLGEFDYWGQGTQVTVSS	low polyreactivity
QVQLVESGGGLVQAGGSLRLSCAASGSIFQHYSLGRSRQAPGKERELVAAISYDTTSTYYADSVKGRFTISRDNAKNNVYLQMNSLKPEDTAVYYCNTYPEVYGPFQYDYWGQGTQVTVSS	low polyreactivity
QVQLVESGGGLVQAGGSLRLSCAASGSIFQIYAMGWYRQAPGKERELAAAINSGGITKYADSVKGRFTISRDNAKNTVYLQMNSLKPEDTAVYYCAKRYGWPYGRFDYWGQGTQVTVSS	low polyreactivity
QVQLVESGGGLVQAGGSLRLSCAASGSIFQRNTIGWYIQAPGKERELVAAISRSGGSTYYADSVKGLFTISRDNAKITVYLQMKSLKPEDTEVYYCAVSGGTSRRYYYWGQGTKVTVSS	high polyreactivity
QVQLVESGGGLVQAGGSLRLSCAASGSIFQSYDMGWSRQAPGKERELVAAITRSGGRTYYAASVKGRFTISRDNAKNTVYLQMNSLKPEDTAVYYCAAFGWGYGYWGQGTQVTVSS	high polyreactivity
QVQLVESGGGLVQAGGSLRLSCAASGSIFQTYAMGWYRQAPGKERELVAAITSGGGSTYYADSVKGRFTISRDNAKNTVYLQMNSLKPEDTAVYYCNRLYRYLVWPAGEYDYWGQGTQVTVTS	high polyreactivity
